Experimental data as given in patent US20100196934A1.

Assays:
[1] = biological target: Deer recombinant PrP (deer); test: direct ELISA, coated denatured rPrP 1 ng/assay
[2] = biological target: Human recombinant PrP (human); test: direct ELISA, coated denatured rPrP 1 ng/assay
[3] = biological target: Bovine recombinant PrP (bovine); test: direct ELISA, coated denatured rPrP 1 ng/assay
[4] = biological target: Sheep recombinant PrP (sheep); test: direct ELISA, coated denatured rPrP 1 ng/assay
[5] = biological target: Mouse recombinant PrP (mouse); test: direct ELISA, coated denatured rPrP 1 ng/assay
[6] = biological target: Mouse BH PrP^Sc (mouse); test: direct ELISA, coated denatured mouse BH PrP^Sc 0.1 mg BH/assay
[7] = biological target: Deer recombinant PrP (deer); test: direct ELISA, coated denatured rPrP 0.1 ng/assay
[8] = biological target: Human recombinant PrP (human); test: direct ELISA, coated denatured rPrP 0.1 ng/assay
[9] = biological target: Bovine recombinant PrP (bovine); test: direct ELISA, coated denatured rPrP 0.1 ng/assay
[10] = biological target: Sheep recombinant PrP (sheep); test: direct ELISA, coated denatured rPrP 0.1 ng/assay
[11] = biological target: Mouse recombinant PrP (mouse); test: direct ELISA, coated denatured rPrP 0.1 ng/assay
[12] = biological target: Mouse BH PrP^Sc (mouse); test: direct ELISA, coated denatured mouse BH PrP^Sc 1 mg BH/assay

In the case of mAb to prion 7D9 (antibody), the RLU [1] is reported as 117 RLU, the RLU [2] is reported as 66.1 RLU and the RLU [3] is reported as 961 RLU. It also gave an RLU [4] of 993 RLU, an RLU [5] of 769 RLU and an RLU [6] of 159 RLU. It also gave an RLU [7] of 121 RLU, an RLU [8] of 81.4 RLU and an RLU [9] of 149 RLU. The RLU [10] was 230 RLU, the RLU [11] was 118 RLU and the RLU [12] was 614 RLU.
For Mouse anti Prion (SAF-61) (antibody), the RLU [1] was 190 RLU, the RLU [2] was 101 RLU and the RLU [3] was 136 RLU. For the same substance, the RLU [4] was 113 RLU, the RLU [5] was 464 RLU and the RLU [6] was 169 RLU. It also gave an RLU [7] of 150 RLU, an RLU [8] of 90.4 RLU and an RLU [9] of 67.6 RLU. It also gave an RLU [10] of 115 RLU, an RLU [11] of 142 RLU and an RLU [12] of 579 RLU.
mAb 6H4 (antibody) showed an RLU [1] of 222 RLU, an RLU [2] of 192 RLU and an RLU [3] of 691 RLU. It also gave an RLU [4] of 160 RLU, an RLU [5] of 332 RLU and an RLU [6] of 178 RLU. The RLU [7] was 92.4 RLU, the RLU [8] was 72.7 RLU and the RLU [9] was 89.1 RLU. For the same substance, the RLU [10] was 125 RLU, the RLU [11] was 104 RLU and the RLU [12] was 610 RLU.
mAb to prion BDI115 (antibody) showed an RLU [1] of 160 RLU, an RLU [2] of 74.3 RLU and an RLU [3] of 177 RLU. For the same substance, the RLU [4] was 104 RLU, the RLU [5] was 86.7 RLU and the RLU [6] was 119 RLU. The RLU [7] was 105 RLU, the RLU [8] was 48 RLU and the RLU [9] was 59.1 RLU. It also gave an RLU [10] of 108 RLU, an RLU [11] of 54.7 RLU and an RLU [12] of 116 RLU.
HuM D18 (antibody) gave an RLU [1] of 121 RLU, an RLU [2] of 94.7 RLU and an RLU [3] of 132 RLU. It also gave an RLU [4] of 186 RLU, an RLU [5] of 1770 RLU and an RLU [6] of 376 RLU. For the same substance, the RLU [7] was 134 RLU, the RLU [8] was 77.5 RLU and the RLU [9] was 109 RLU. The RLU [10] was 169 RLU, the RLU [11] was 366 RLU and the RLU [12] was 2230 RLU.
For Mouse anti Prion (SAF-83) (antibody), the RLU [1] was 125 RLU, the RLU [2] was 67 RLU and the RLU [3] was 50.8 RLU. For the same substance, the RLU [4] was 115 RLU, the RLU [5] was 2230 RLU and the RLU [6] was 274 RLU. The RLU [7] was 122 RLU, the RLU [8] was 65.2 RLU and the RLU [9] was 45.7 RLU. The RLU [10] was 98.1 RLU, the RLU [11] was 181 RLU and the RLU [12] was 1730 RLU.
